# Test results published in US20240293570A1 (priority 2021, published 2024).
# Read-outs that look alike come from different tables or passages of the source.
# Key:
# [1] = format: physicochemical; conditions: ADC with Her2 antibody, RP-HPLC-MS
# Description: (§1) A drug-antibody conjugating ratio (also known as drug-antibody ratio, abbreviated as DAR) of the antibody-drug conjugate was tested using reversed-phase high-performance liquid chromatography-mass chromatography (RP-HPLC-MS). The ADC sample was diluted with 50 mmol/L Tris buffer (pH 8.0) to 1 mg/ml. A fresh dithiothreitol (DTT) stock solution was added to achieve a final DTT concentration of 50 mmol/L. Incubation was performed at 37° C. for 30 minutes. A PLRP-S chromatographic column (1000 Å pores, 2.1×50 mm, 5) μm) was used, and the column temperature was 70° C. The flow rate was 0.25 mL/min. […] of sample was injected; the mobile phase A was an aqueous solution of 0.1% formic acid (V/V) and 0.025% trifluoroacetic acid (V/V), and the mobile phase B was an acetonitrile solution of 0.1% formic acid (V/V) and 0.025% trifluoroacetic acid (V/V); the running time was 0-3 minutes, where 27% of mobile phase B ran for 3 minutes, and the mobile phase B ran from 27% to 49% within 3-25 minutes, from 49% to 95% within 25-26 minutes, at 95% within […], from 95% to 27% within 30-31.5 minutes, and at 27% for 31.5-45 minutes. […] Mass spectrometry drying gas was at a temperature of 350° C. and a flow rate of 7.0 L/min, the pressure of an atomizer was 40 psi, capillary voltage was positive 3000V and negative 3000V, and the mass range was 500-1600 m/z. The molecular weight of each mass spectrometry peak (ranging from 20000 to 70000) was calculated by deconvolution and compared with light and heavy chain molecular weights of un-conjugated antibodies to calculate a drug load at each peak, so as to determine the load of a corresponding ultraviolet peak. Area percentages of heavy and light chain ultraviolet peaks were calculated through integration, and a weighted average DAR of the antibody-drug conjugate was calculated by combining the area percentages with the drug load distribution of each peak.
# [2] = Polymer (high molecular component) content of antibody-drug conjugates by SE-HPLC; format: physicochemical; conditions: ADC with Her2 antibody
# Description: (§2) Polymers (high molecular components) of the antibody-drug conjugates were tested using molecular exclusion high-performance liquid chromatography (SE-HPLC). A Biocore SEC chromatographic column (7.8×300 mm, […]) was used, and the mobile phase was 50 mM phosphate containing 300 mM sodium chloride (pH 6.8), with a flow rate of 0.5 mL/min. Samples of […] and 10 μl were injected. […] The polymer content of an antibody-drug conjugate was calculated using an area normalization method.
# [3] = Naked antibody content of antibody-drug conjugates by hydrophobic interaction chromatography (HIC); format: physicochemical; conditions: ADC with Her2 antibody
# Description: The content of naked antibodies in the antibody-drug conjugate was tested using hydrophobic interaction chromatography (HIC). A Biocore HIC-Butyl chromatographic column (4.6×150 mm, 5 μm) was used. The mobile phase A was a 100 mM phosphate aqueous solution containing 2 M ammonium sulfate (pH 7.0), and the mobile phase B was a 100 mM phosphate aqueous solution (pH 7.0): isopropanol=80:20 (V/V). Samples of 50 μg and 10 μl were injected. The mobile phase A at the flow rate of 1 mL/min ran at 100% for 3 minutes. Within 3-25 minutes, the mobile phase B ran from […] to 100%, while the mobile phase B decreased to 0% at 25.1 and ran to 30 minutes. […] The naked antibody content of the antibody-drug conjugate was calculated using an area normalization method based on the retention time of a naked antibody peak located by the antibody of the antibody-drug conjugate.
# [4] = Stability (placement) test of ADCs at 40° C. in dark for 14 days, DAR and polymer content; format: physicochemical
# Description: as §2, §1
# Stability testing method: The stability of the obtained ADCs was tested for 14 days. The ADCs were placed at 40° C. in dark. Sampling points were days 0, 7, and 14. The polymer content and DAR value of samples at different sampling points were tested according to the method in Experimental Example 1.
smiles,measurement,setting,value
C=C1C[C@@H]2CC[C@@]34C[C@H]5OC6C(O[C@H]7CC[C@H](CC(=O)C[C@@H]8[C@@H](OC)[C@@H](C[C@H](O)CNC(=O)CNC(=O)[C@H](Cc9ccccc9)NC(=O)CNC(=O)CNC(=O)CCOCCOCCN(CCOCCOCCC(=O)NCC(=O)NCC(=O)N[C@@H](Cc9ccccc9)C(=O)NCC(=O)NCOCC(=O)N[C@H]9CCc%10c(C)c(F)cc%11nc%12c(c9c%10%11)Cn9c-%12cc%10c(c9=O)COC(=O)[C@]%10(O)CC)C(=O)CN9CCOCCOCCOCCOCCN(C(=O)CCOCCOCCOCCOCCOCCOCCOCCOCCN%10C(=O)C=CC%10=O)CCOCCOCCOCCOCC9)O[C@H]8C[C@H]8O[C@@H](CC[C@@H]1O2)C[C@@H](C)C8=C)O[C@@H]7[C@@H]6O3)[C@H]5O4 [Example 15],DAR,[1],4.07
same,Polymer content (%),[2],1.20%
same,Naked antibody content (%),[3],3.63%
same,DAR,"[4]; Day 0, 40° C. in dark",4.07
same,Polymer content (%),"[4]; Day 0, 40° C. in dark",1.20%
same,DAR,"[4]; Day 7, 40° C. in dark",4.07
same,Polymer content (%),"[4]; Day 7, 40° C. in dark",1.21%
same,DAR,"[4]; Day 14, 40° C. in dark",4.11
same,Polymer content (%),"[4]; Day 14, 40° C. in dark",1.27%
C=C1C[C@@H]2CC[C@@]34C[C@H]5OC6C(O[C@H]7CC[C@H](CC(=O)C[C@@H]8[C@@H](OC)[C@@H](C[C@H](O)CNC(=O)CNC(=O)[C@H](Cc9ccccc9)NC(=O)CNC(=O)CNC(=O)CCOCCOCCN(CCOCCOCCC(=O)NCC(=O)NCC(=O)N[C@@H](Cc9ccccc9)C(=O)NCC(=O)NCOCC(=O)N[C@H]9CCc%10c(C)c(F)cc%11nc%12c(c9c%10%11)Cn9c-%12cc%10c(c9=O)COC(=O)[C@]%10(O)CC)C9CCC(NC(=O)CN%10CCOCCOCCOCCN(C(=O)CCCCCN%11C(=O)C=CC%11=O)CCOCCOCCOCC%10)CC9)O[C@H]8C[C@H]8O[C@@H](CC[C@@H]1O2)C[C@@H](C)C8=C)O[C@@H]7[C@@H]6O3)[C@H]5O4 (stereo partly drawn) [Example 19],DAR,[1],3.92
same,Polymer content (%),[2],1.53%
same,Naked antibody content (%),[3],5.22%
same,DAR,"[4]; Day 0, 40° C. in dark",3.92
same,Polymer content (%),"[4]; Day 0, 40° C. in dark",1.53%
same,DAR,"[4]; Day 7, 40° C. in dark",3.91
same,Polymer content (%),"[4]; Day 7, 40° C. in dark",1.56%
same,DAR,"[4]; Day 14, 40° C. in dark",3.87
same,Polymer content (%),"[4]; Day 14, 40° C. in dark",1.49%
C=C1C[C@@H]2CC[C@@]34C[C@H]5OC6C(O[C@H]7CC[C@H](CC(=O)C[C@@H]8[C@@H](OC)[C@@H](C[C@H](O)CNC(=O)CNC(=O)[C@H](Cc9ccccc9)NC(=O)CNC(=O)CNC(=O)CCOCCOCCN(CCOCCOCCC(=O)NCC(=O)NCC(=O)N[C@@H](Cc9ccccc9)C(=O)NCC(=O)NCOCC(=O)N[C@H]9CCc%10c(C)c(F)cc%11nc%12c(c9c%10%11)Cn9c-%12cc%10c(c9=O)COC(=O)[C@]%10(O)CC)C9CCC(NC(=O)CN%10CCOCCOCCOCCN(C(=O)CCOCCOCCOCCOCCN%11C(=O)C=CC%11=O)CCOCCOCCOCC%10)CC9)O[C@H]8C[C@H]8O[C@@H](CC[C@@H]1O2)C[C@@H](C)C8=C)O[C@@H]7[C@@H]6O3)[C@H]5O4 (stereo partly drawn) [Example 20],DAR,[1],3.85
same,Polymer content (%),[2],1.48%
same,Naked antibody content (%),[3],4.23%
same,DAR,"[4]; Day 0, 40° C. in dark",3.85
same,Polymer content (%),"[4]; Day 0, 40° C. in dark",1.48%
same,DAR,"[4]; Day 7, 40° C. in dark",3.87
same,Polymer content (%),"[4]; Day 7, 40° C. in dark",1.50%
same,DAR,"[4]; Day 14, 40° C. in dark",3.89
same,Polymer content (%),"[4]; Day 14, 40° C. in dark",1.43%
C=C1C[C@@H]2CC[C@@]34C[C@H]5OC6C(O[C@H]7CC[C@H](CC(=O)C[C@@H]8[C@@H](OC)[C@@H](C[C@H](O)CNC(=O)CNC(=O)[C@H](Cc9ccccc9)NC(=O)CNC(=O)CNC(=O)CN9CCOCCN(C(=O)CCN%10C(=O)C=CC%10=O)CCOCC9)O[C@H]8C[C@H]8O[C@@H](CC[C@@H]1O2)C[C@@H](C)C8=C)O[C@@H]7[C@@H]6O3)[C@H]5O4 [Example 21],DAR,[1],4.08
same,Polymer content (%),[2],0.87%
same,Naked antibody content (%),[3],2.56%
same,DAR,"[4]; Day 0, 40° C. in dark",4.08
same,Polymer content (%),"[4]; Day 0, 40° C. in dark",0.87%
same,DAR,"[4]; Day 7, 40° C. in dark",4.06
same,Polymer content (%),"[4]; Day 7, 40° C. in dark",0.90%
same,DAR,"[4]; Day 14, 40° C. in dark",4.10
same,Polymer content (%),"[4]; Day 14, 40° C. in dark",0.88%
CCc1c2c(nc3ccc(O)cc13)-c1cc3c(c(=O)n1C2)CCC(=O)[C@@]3(CC)OC(=O)N(C)CCN(C)C(=O)COCNC(=O)CNC(=O)[C@H](Cc1ccccc1)NC(=O)CNC(=O)CNC(=O)CN1CCOCCN(C(=O)CCN2C(=O)C=CC2=O)CCOCC1 [Example 23],DAR,[1],4.12
same,Polymer content (%),[2],0.41%
same,Naked antibody content (%),[3],0.00%
same,DAR,"[4]; Day 0, 40° C. in dark",4.12
same,Polymer content (%),"[4]; Day 0, 40° C. in dark",0.41%
same,DAR,"[4]; Day 7, 40° C. in dark",4.15
same,Polymer content (%),"[4]; Day 7, 40° C. in dark",0.45%
same,DAR,"[4]; Day 14, 40° C. in dark",4.16
same,Polymer content (%),"[4]; Day 14, 40° C. in dark",0.56%
C=C1C[C@@H]2CC[C@@]34C[C@H]5OC6C(C[C@H]7CC[C@H](CC(=O)C[C@@H]8[C@@H](OC)[C@@H](C[C@H](O)CNC(=O)CNC(=O)[C@H](Cc9ccccc9)NC(=O)CNC(=O)CNC(=O)CCC(=O)N9CCOCCN(C(=O)CCN%10C(=O)C=CC%10=O)CCOCC9)O[C@H]8C[C@H]8O[C@@H](CC[C@@H]1O2)C[C@@H](C)C8=C)O[C@@H]7[C@@H]6O3)[C@H]5O4 [Example 26],DAR,[1],3.92
same,Polymer content (%),[2],0.70%
same,Naked antibody content (%),[3],1.26%
same,DAR,"[4]; Day 0, 40° C. in dark",3.92
same,Polymer content (%),"[4]; Day 0, 40° C. in dark",0.70%
same,DAR,"[4]; Day 7, 40° C. in dark",3.92
same,Polymer content (%),"[4]; Day 7, 40° C. in dark",0.72%
same,DAR,"[4]; Day 14, 40° C. in dark",3.96
same,Polymer content (%),"[4]; Day 14, 40° C. in dark",0.66%
CC[C@@]1(O)C(=O)OCc2c1cc1n(c2=O)Cc2c-1nc1cc(F)c(C)c3c1c2[C@@H](NC(=O)COCNC(=O)CNC(=O)CNC(=O)CNC(=O)CN1CCOCCN(C(=O)CCN2C(=O)C=CC2=O)CCOCC1)CC3 [Example 28],DAR,[1],3.84
same,Polymer content (%),[2],0.56%
same,Naked antibody content (%),[3],2.76%
same,DAR,"[4]; Day 0, 40° C. in dark",3.84
same,Polymer content (%),"[4]; Day 0, 40° C. in dark",0.56%
same,DAR,"[4]; Day 7, 40° C. in dark",3.89
same,Polymer content (%),"[4]; Day 7, 40° C. in dark",0.57%
same,DAR,"[4]; Day 14, 40° C. in dark",3.82
same,Polymer content (%),"[4]; Day 14, 40° C. in dark",0.65%
C=C1C[C@@H]2CC[C@@]34C[C@H]5OC6C(O[C@H]7CC[C@H](CC(=O)C[C@@H]8[C@@H](OC)[C@@H](C[C@H](O)CNC(=O)CNC(=O)[C@H](Cc9ccccc9)NC(=O)CNC(=O)CNC(=O)CN9CCOCCOCCN(C(=O)CCCCCN%10C(=O)C=CC%10=O)CCOCCOCC9)O[C@H]8C[C@H]8O[C@@H](CC[C@@H]1O2)C[C@@H](C)C8=C)O[C@@H]7[C@@H]6O3)[C@H]5O4 [Example 39],DAR,[1],4.30
same,Polymer content (%),[2],0.90%
same,Naked antibody content (%),[3],0.00%
same,DAR,"[4]; Day 0, 40° C. in dark",4.30
same,Polymer content (%),"[4]; Day 0, 40° C. in dark",0.90%
same,DAR,"[4]; Day 7, 40° C. in dark",4.32
same,Polymer content (%),"[4]; Day 7, 40° C. in dark",0.92%
same,DAR,"[4]; Day 14, 40° C. in dark",4.30
same,Polymer content (%),"[4]; Day 14, 40° C. in dark",0.98%
